In patent US20230118024A1 (Chugai, published 2023):

B1: DQN0225dd (antibody, human IgG1, kappa, V domains shown)
VH: QSLEESGGGLVKPGGTLTLTCTASGFSFSSAYYMCWVRQAPGKGLEWIACIYVGSGSTYYASWAQGRCTISKASSTTVTLQMTSLTAADTATYFCARDPLIYYYYGELNLWGPGTLVTVSS
VL: AVVLTQTASPVSAPVGGTVTIKCQASEDISSNLAWYQQKPGQRPKVLIYSASTLASGVSSQFKGSGSGTQFTLTISDLECADAATYYCQSYYDISSVTFGGGTKVEIKR
notes: also called DQN0225Hd; DQN0225Ld
B2: DQN0271hh (antibody, human IgG1, kappa, V domains shown)
VH: QSLEESGGGLVKPGASLTLTCKASGFSFSSGYYMCWVRQAPGKGLEWIACIYAGSPDLTYYATWAKGRLTISTTSSTTVTLQLTSLTAADTATYFCARDPGNWGGYDDVRLWGPGTLVTVSS
VL: AQVLTQTPSPVSAAVGGTVTISCQSSQSIYSNYLSWFQQKTGQPPKLLIYRASTLASGVPSRFKGSGSGTEFTLTISGVECDDAATYYCQGYYSGAIWTFGGGTKVEIKR
notes: also called DQN0271Lh
B3: DQN0324hh (antibody, human IgG1, kappa, V domains shown)
VH: QSLEESGGDLVKPGASLALTCTASGFSLINNYYMCWVRQAPGKGLEWIACIYAGLGGWTYYASWAKGRFTISKTSSTTVTLQMSSLTVADAATYFCARAATTYYHFNLWGPGTLVTVSS
VL: AVVLTQTESPVSAAVGDTVTIKCQASQSIGNALAWYQQKPGQPPKLLIYDASTLASGVPSRFKGSGSGTQFTLTISDLECADAATYYCQSYDYGSSADTYTFGGGTKVEIKR
notes: also called DQN0324Lh

Legend:
[1] = biological target: T1, recombinant HLA-DQ2.5/33mer gliadin peptide complex (human; wheat); assay: SPR, Ab captured, 37 C, pH 7.4
T1 construct: also called soluble HLA-DQ2.5/33mer gliadin peptide complex
T1 alpha: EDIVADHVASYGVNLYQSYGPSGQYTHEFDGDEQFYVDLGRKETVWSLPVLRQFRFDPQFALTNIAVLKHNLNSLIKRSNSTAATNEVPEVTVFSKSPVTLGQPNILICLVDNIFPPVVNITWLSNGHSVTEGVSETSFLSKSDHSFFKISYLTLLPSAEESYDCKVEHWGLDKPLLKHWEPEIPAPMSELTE
T1 beta: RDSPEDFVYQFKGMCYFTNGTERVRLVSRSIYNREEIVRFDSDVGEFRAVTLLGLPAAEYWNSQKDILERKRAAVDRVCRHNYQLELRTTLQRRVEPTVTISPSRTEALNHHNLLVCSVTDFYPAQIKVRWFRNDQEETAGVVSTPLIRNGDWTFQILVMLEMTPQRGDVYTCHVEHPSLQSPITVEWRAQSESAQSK
T1 peptide: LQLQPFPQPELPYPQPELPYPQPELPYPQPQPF

[2] = biological target: T2, HLA-DQ2.5/CLIP peptide complex on Ba/F3 cells (human); assay: FACS
T2 construct: also called Ba/F3-HLA-DQ2.5/CLIP peptide

[3] = biological target: T3, HLA-DQ2.5 on HLA-DQ2.5 positive PBMC-B cells (human, UniProt P01909 24-254; P01920 33-261); assay: FACS
T3 construct: also called DQ2.5 + PBMC; HLA-DQ2.5+PBMC B cell
T3 MHC II alpha: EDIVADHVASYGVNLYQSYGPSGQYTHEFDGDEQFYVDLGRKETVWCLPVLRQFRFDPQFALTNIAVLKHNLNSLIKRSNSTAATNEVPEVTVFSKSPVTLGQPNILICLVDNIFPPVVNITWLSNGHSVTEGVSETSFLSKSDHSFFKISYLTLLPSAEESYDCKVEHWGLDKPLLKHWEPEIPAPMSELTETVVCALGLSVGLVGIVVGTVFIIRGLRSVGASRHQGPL
T3 MHC II beta: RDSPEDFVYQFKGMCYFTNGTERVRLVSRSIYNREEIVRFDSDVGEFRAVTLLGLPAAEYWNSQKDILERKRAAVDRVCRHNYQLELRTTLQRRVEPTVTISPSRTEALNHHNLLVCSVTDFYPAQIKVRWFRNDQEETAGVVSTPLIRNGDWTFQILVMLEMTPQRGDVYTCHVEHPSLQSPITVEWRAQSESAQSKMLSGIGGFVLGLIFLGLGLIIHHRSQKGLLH

[4] = biological target: T4, HLA-DQ2.5/omega 2 gliadin peptide complex on Ba/F3 cells (human; wheat); assay: FACS
T4 construct: also called Ba/F3-HLA-DQ2.5/omega 2 gliadin peptide

[5] = biological target: T5, HLA-DQ2.5/secalin 1 peptide complex on Ba/F3 cells (human; rye); assay: FACS
T5 construct: also called Ba/F3-HLA-DQ2.5/secalin 1 peptide

[6] = biological target: T6, HLA-DQ2.5/secalin 2 peptide complex on Ba/F3 cells (human; rye); assay: FACS
T6 construct: also called Ba/F3-HLA-DQ2.5/secalin 2 peptide

[7] = biological target: T7, HLA-DQ2.5/omega 1 gliadin peptide complex on Ba/F3 cells (human; wheat); assay: FACS
T7 construct: also called Ba/F3-HLA-DQ2.5/omega 1 gliadin peptide

[8] = biological target: T8, HLA-DQ2.5/33mer gliadin peptide complex on Ba/F3 cells (human; wheat); assay: FACS
T8 construct: also called Ba/F3-HLA-DQ2.5/33mer gliadin peptide; HLA-DQ2.5/gliadin peptide complex

[9] = biological target: T9, HLA-DQ2.5/alpha 2 gliadin peptide complex on Ba/F3 cells (human; wheat); assay: FACS
T9 construct: also called Ba/F3-HLA-DQ2.5/alpha 2 gliadin peptide

[10] = biological target: T10, HLA-DQ2.5 on Ba/F3 cells (not in the form of a complex with a linked peptide) (human, UniProt P01909 24-254; P01920 33-261); assay: FACS
T10 construct: also called Ba/F3-HLA-DQ2.5; No peptide
T10 MHC II alpha: T3 MHC II alpha
T10 MHC II beta: T3 MHC II beta

[11] = biological target: T11, HLA-DQ2.5/alpha 1b gliadin peptide complex on Ba/F3 cells (human; wheat); assay: FACS
T11 construct: also called Ba/F3-HLA-DQ2.5/alpha 1b gliadin peptide

[12] = biological target: T12, HLA-DQ2.5/alpha 1 gliadin peptide complex on Ba/F3 cells (human; wheat); assay: FACS
T12 construct: also called Ba/F3-HLA-DQ2.5/alpha 1 gliadin peptide

[13] = biological target: T8, HLA-DQ2.5/33mer gliadin peptide complex …; assay: cell-based or functional assay

Row | Binder | Kd [1] [nM] | FIG. 30 FACS value (IC17=0, DQN0139bb=100) [2] | FIG. 30 FACS value (IC17=0, DQN0139bb=100) [3] | FIG. 30 FACS value (IC17=0, DQN0139bb=100) [4] | FIG. 30 FACS value (IC17=0, DQN0139bb=100) [5] | FIG. 30 FACS value (IC17=0, DQN0139bb=100) [6] | FIG. 30 FACS value (IC17=0, DQN0139bb=100) [7] | FIG. 30 FACS value (IC17=0, DQN0139bb=100) [8] | FIG. 30 FACS value (IC17=0, DQN0139bb=100) [9] | FIG. 30 FACS value (IC17=0, DQN0139bb=100) [10] | FIG. 30 FACS value (IC17=0, DQN0139bb=100) [11] | FIG. 30 FACS value (IC17=0, DQN0139bb=100) [12] | IC50 (read off the curve) [13] [µg/mL]
1 | B1 | 7.88 | 1.2 | -0.1 | 62 | 77.2 | 68.7 | 75.6 | 108 | 85.1 | -0.1 | 81.3 | 93.5 | ~0.3
2 | B2 | 6.07 | 3.8 | 0 | 68.9 | 65.3 | 70.2 | 79.3 | 106 | 83 | 0 | 80.5 | 91.2 | ~0.3
3 | B3 | 6.32 | 0.3 | 0.3 | 79.4 | 16.3 | 14.5 | 7.3 | 59.2 | 34.9 | 0 | 8.2 | 26.9 | ~0.2
